What all share (test): co-IP; LUMIER in HEK293TN cells: Prot-A fusion co-transfected with Renilla luciferase fusion (AN always the luciferase fusion with the interactors); luciferase activity before (input) and after pulldown; percentage pulldown = pulldown/input x 100; empty vectors as negative control; positive if more than two times the background
Holding throughout (details): partners not purified

Test [1] concerns the target T1, ARGONAUTE1 (AGO1), Prot-A fusion (Arabidopsis thaliana, UniProt O04379 1-1048).
T1 construct: ARGONAUTE1, Arabidopsis thaliana, AT1G48410; CDS amplified from Col-0 cDNA; source: HEK293TN cells, transfected; not shown: Protein A (Staphylococcus aureus), N-terminal, kept
T1 sequence (looked up): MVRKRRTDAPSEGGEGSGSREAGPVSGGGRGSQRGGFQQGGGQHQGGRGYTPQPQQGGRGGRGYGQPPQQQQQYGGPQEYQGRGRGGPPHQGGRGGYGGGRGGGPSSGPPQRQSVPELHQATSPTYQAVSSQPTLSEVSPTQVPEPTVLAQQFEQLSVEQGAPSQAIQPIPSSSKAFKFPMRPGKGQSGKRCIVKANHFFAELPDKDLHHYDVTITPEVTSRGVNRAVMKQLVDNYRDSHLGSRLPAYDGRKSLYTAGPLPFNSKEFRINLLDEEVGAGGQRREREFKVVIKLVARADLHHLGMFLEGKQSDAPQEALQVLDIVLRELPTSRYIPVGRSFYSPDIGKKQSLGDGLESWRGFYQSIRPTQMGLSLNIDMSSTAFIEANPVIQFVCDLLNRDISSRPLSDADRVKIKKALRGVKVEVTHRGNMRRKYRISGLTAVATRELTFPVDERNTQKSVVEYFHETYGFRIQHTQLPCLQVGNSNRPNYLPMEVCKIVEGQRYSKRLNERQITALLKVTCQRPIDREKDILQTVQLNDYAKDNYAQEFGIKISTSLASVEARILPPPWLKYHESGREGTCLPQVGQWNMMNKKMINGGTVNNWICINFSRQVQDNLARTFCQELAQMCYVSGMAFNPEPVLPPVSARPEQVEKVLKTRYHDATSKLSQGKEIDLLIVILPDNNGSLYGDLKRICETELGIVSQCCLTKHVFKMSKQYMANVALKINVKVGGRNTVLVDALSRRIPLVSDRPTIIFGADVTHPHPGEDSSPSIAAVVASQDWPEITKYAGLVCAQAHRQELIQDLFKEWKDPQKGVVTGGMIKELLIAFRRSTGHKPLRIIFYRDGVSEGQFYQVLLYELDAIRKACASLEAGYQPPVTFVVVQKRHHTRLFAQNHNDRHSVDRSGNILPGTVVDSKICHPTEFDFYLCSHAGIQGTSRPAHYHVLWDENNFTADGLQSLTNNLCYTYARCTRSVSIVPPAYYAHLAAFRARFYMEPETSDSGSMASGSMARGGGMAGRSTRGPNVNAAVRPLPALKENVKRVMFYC

In test [2] the target is T2, PROTEIN MEI2-LIKE 5 (ATML5), Prot-A fusion (Arabidopsis thaliana, UniProt Q8VWF5 1-800).
T2 construct: Protein MEI2-like 5, Arabidopsis thaliana, AT1G29400; CDS amplified from Col-0 cDNA; source: HEK293TN cells, transfected; not shown: Protein A (Staphylococcus aureus), N-terminal, kept
T2 sequence (looked up): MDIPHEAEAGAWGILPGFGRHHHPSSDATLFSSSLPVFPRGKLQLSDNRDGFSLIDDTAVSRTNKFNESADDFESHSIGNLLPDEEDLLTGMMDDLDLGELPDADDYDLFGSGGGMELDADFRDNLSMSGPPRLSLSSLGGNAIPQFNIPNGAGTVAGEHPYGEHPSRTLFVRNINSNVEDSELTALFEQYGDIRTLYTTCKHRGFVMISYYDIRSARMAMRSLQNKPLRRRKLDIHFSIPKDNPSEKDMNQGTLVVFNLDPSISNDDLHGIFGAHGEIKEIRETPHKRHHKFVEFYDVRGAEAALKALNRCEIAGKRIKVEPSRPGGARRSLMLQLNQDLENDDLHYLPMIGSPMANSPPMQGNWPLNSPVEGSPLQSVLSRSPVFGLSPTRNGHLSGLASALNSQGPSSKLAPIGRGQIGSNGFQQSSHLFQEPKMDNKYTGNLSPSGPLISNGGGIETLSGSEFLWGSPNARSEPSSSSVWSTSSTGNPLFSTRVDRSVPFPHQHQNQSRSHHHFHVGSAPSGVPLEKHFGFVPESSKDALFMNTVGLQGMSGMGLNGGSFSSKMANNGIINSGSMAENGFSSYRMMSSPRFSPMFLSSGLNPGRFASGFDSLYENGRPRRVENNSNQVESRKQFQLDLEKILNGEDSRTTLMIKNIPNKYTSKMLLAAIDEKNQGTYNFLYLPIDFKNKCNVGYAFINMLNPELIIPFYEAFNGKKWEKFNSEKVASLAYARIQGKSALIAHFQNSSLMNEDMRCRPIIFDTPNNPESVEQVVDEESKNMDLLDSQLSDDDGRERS

Test [3] has as its target T3, RNA BINDING PROTEIN 47C (RBP47C), Prot-A fusion (Arabidopsis thaliana, UniProt Q9SX79 1-432).
T3 construct: RBP47C, Arabidopsis thaliana, AT1G47490; CDS amplified from Col-0 cDNA; source: HEK293TN cells, transfected; not shown: Protein A (Staphylococcus aureus), N-terminal, kept
T3 sequence (looked up): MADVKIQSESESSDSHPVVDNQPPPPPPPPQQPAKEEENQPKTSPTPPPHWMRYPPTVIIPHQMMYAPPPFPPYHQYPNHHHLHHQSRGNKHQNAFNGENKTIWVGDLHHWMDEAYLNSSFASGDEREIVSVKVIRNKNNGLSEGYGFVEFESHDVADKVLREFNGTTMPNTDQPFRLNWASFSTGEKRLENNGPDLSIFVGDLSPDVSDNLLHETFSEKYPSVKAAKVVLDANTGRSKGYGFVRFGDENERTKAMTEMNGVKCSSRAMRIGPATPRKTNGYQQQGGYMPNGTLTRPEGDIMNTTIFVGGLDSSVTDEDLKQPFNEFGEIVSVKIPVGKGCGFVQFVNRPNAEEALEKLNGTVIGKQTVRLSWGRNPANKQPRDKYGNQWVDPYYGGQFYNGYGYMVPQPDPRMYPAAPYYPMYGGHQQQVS

B1: AN, Renilla luciferase fusion (LUMIER) (natural protein, Arabidopsis thaliana, UniProt O23702 1-636, looked up)
chain: MSKIRSSATMPHRDQPSPASPHVVTLNCIEDCALEQDSLAGVAGVEYVPLSRIADGKIESATAVLLHSLAYLPRAAQRRLRPHQLILCLGSADRAVDSTLAADLGLRLVHVDTSRAEEIADTVMALILGLLRRTHLLSRHALSASGWLGSLQPLCRGMRRCRGMVLGIVGRSVSARYLASRSLAFKMSVLYFDVPEGDEERIRPSRFPRAARRMDTLNDLLAASDVISLHCALTNDTVQILNAECLQHIKPGAFLVNTGSCQLLDDCAVKQLLIDGTIAGCALDGAEGPQWMEAWVKEMPNVLILPRSADYSEEVWMEIREKAISILHSFFLDGVIPSNTVSDEEVEESEASEEEEQSPSKHEKLAIVESTSRQQGESTLTSTEIVRREASELKESLSPGQQHVSQNTAVKPEGRRSRSGKKAKKRHSQQKYMQKTDGSSGLNEESTSRRDDIAMSDTEEVLSSSSRCASPEDSRSRKTPLEVMQESSPNQLVMSSKKFIGKSSELLKDGYVVALYAKDLSGLHVSRQRTKNGGWFLDTLSNVSKRDPAAQFIIAYRNKDTVGLRSFAAGGKLLQINRRMEFVFASHSFDVWESWSLEGSLDECRLVNCRNSSAVLDVRVEILAMVGDDGITRWID
notes: ANGUSTIFOLIA (AN), Arabidopsis thaliana, AT1G01510; CDS amplified from Col-0 cDNA; in the dimerisation test the second copy must have been the N-terminal protein A fusion (surmised from the LUMIER format); also called wild-type AN; source: HEK293TN cells, transfected; not shown: Renilla reniformis luciferase, N-terminal, kept
For B1, the “fold change from background” value in test [1] is 5.02 fold; in test [2], 5.04 fold; in test [3], 4.97 fold. In addition, the percentage pulldown in test [1] came out at 0.47%; in test [2] it was 0.47%; in test [3], 0.46%.

These data come from PMC5469197, “ANGUSTIFOLIA, a Plant Homolog of CtBP/BARS Localizes to Stress Granules and Regulates Their Formation” (Frontiers in Plant Science, 2017).
